Assay results from US20190016760A1 (Sanofi, published 2019).
Like-named read-outs stand apart in the source and are kept apart here.

Columns and labels:
[1] = biological target: the molecule itself
[2] = biological target: the molecule itself; remark: listed apart in the source
[3] = biological target: the molecule itself; remark: listed apart in the source

B1: Shigella flexneri IpaD protein fused to the lamprey VLR-B antibody C-terminal domain SEQ ID NO: 2, expressed in E. coli (other)
chain: MNITTLTNSISTSSFSPNNTNGSSTETVNSDIKTTTSSHPVSSLTMLNDTLHNIRTTNQALKKELSQKTLTKTSLEEIALHSSQISMDVNKSAQLLDILSRHEYPINKDARELLHSAPKEAELDGDQMISHRELWAKIANSINDINEQYLKVYEHAVSSYTQMYQDFSAVLSSLAGWISPGGNDGNSVKLQVNSLKKALEELKEKYKDKPLYPANNTVSQEQANKWLTELGGTIGKVSQKNGGYVVSINMTPIDNMLKSLDNLGGNGEVVLDNAKYQAWNAGFSAEDETMKNNLQTLVQKYSNANSIFDNLVKVLSSTISSCTDTDKLFLHFNCTSIQERKNDGGDCGKPACTTLLNCANFLSCLCSTCALCRKR
notes: also called IpaD-lamprey
binding result [1]: binds

B2: Shigella flexneri MxiH protein fused to the lamprey VLR-B antibody C-terminal domain SEQ ID NO: 2, expressed in E. coli (other)
chain: MSVTVPNDDWTLSSLSETFDDGTQTLQGELTLALDKLAKNPSNPQLLAEYQSKLSEYTLYRNAQSNTVKVIKDVDAAIIQNFRNCTSIQERKNDGGDCGKPACTTLLNCANFLSCLCSTCALCRKR
notes: The expected monomer weight is 13.86 kDa; Found in the insoluble fraction; also called MxiH-lamprey
binding result [2]: binds

B3: Shigella flexneri MxiH protein fused to the lamprey VLR-B antibody C-terminal domain SEQ ID NO: 2, with GGSLE linker and 6xHis tag (other)
chain: MSVTVPNDDWTLSSLSETFDDGTQTLQGELTLALDKLAKNPSNPQLLAEYQSKLSEYTLYRNAQSNTVKVIKDVDAAIIQNFRNCTSIQERKNDGGDCGKPACTTLLNCANFLSCLCSTCALCRKRGGSLEHHHHHH
notes: also called MxiH-lamprey-His
binding result [3]: binds
